Measured values as given in US5800815, “Antibodies to P-selectin and their uses” (Cytel Corporation, dated 1998).
Numbering of substitutions follows the chain as printed. No end group written: not given here.

T1: peptide CQNRYTDLVAIQNKNE
T1 peptide: CQNRYTDLVAIQNKNE-NH2

B1: reshaped MAb PB1.3, heavy chain CY1748RHA with light chain CY1748RLB (antibody, V domains shown)
VH: EAQLVQSGAEVKKPGASVKVSCKASGYTFTNYVMHWVRQAPGQRLEWMGFINPSNDGPKYNERFKNRVTITSDTSASTAYMELSSLRSEDTAVYYCARARPGFDWYFDVWGQGTLVTVSS
VL: DIQMTQSPSTLSASVGDRVTVTCKASQNVATNVVWYQQKPGEAPKALIYTASYRFSGVPSRFSGSGSGTDFTLTISSLQSDDFATYYCQQYNNYPYTFGQGTKLEIK
B2: reshaped MAb PB1.3 (HA/LA), IgG1 isotype (antibody, V domains shown)
VH: B1 VH
VL: B1 VL with S60E
B3: reshaped MAb PB1.3 (HB/LD), IgG4 isotype (antibody, V domains shown)
VH: B1 VH with E1Q, A2V
VL: B1 VL with D70E
B4: reshaped MAb PB1.3, heavy chain CY1748RHA with light chain CY1748RLC (antibody, V domains shown)
VH: B1 VH
VL: B1 VL with S60E, D70E
B5: mu MAb PB1.3 (antibody, V domains shown)
VH: EAQLQQSGPELVEPGASVKVSCKASGYTFTNYVMHWVKQKPGQGLEWIGFINPSNDGPKYNERFKNKATLTSDKSSSTAYMELSSLTSEVSAVYFCARARPGFDWYFDVWGAGTTVTVSS
VL: DIVMTQSQKFMSTSVGDRVSVTCKASQNVATNVVWYQQRPGQSPKALIYTASYRFSGVPERFSGSGSGTDFTLTITNVQSEDLADYFCQQYNNYPYTFGGGTKVEIQ

How the values were obtained:
[1] = biological target: T2, recombinant soluble P-selectin (Homo sapiens (Human), UniProt P16109); assay: ELISA on plates coated with rsP-selectin, COS cell supernatants
Procedure: Media from the transfected COS cells were assayed by ELISA to quantify levels of human antibody produced and analyze capacity to bind to recombinant soluble P-selectin (rsP-selectin). Immulon microtiter plates ([…], #011-010-3355) were coated with 100 μl/well of a solution of goat anti-human IgG (whole molecule, SIGMA #I-1886) to a final concentration of 12.5 μg/ml or a solution of rsP-selectin (1.2 mg/ml) diluted in Dulbecco's phosphate buffered saline (DPBS). Plates were coated overnight at 4° C. or for 2 h at 37° C. The plates were then washed three times with DPBS. The plates were then blocked with 400 μl/well of DPBS+1% bovine serum albumin (BSA, SIGMA, #A-7888) for one h or longer at room temperature. The plates were then washed three times with DPBS.
Serial dilutions of the monoclonal antibodies in DPBS+ 1% BSA were added to the plates (100 μl/well), and the plates were incubated for 1 h at room temperature. The plates were then washed three times with DPBS. 100 μl/well of a second antibody (goat anti-human IgG peroxidase conjugate, SIGMA #A-8867) diluted 1 to 1000 in DPBS+ 1% BSA was added to the plates, and the plates were incubated for one h at room temperature. The plates were then washed three times with DPBS. […] The plates were read at 450 nm in a […] […]

[2] = biological target: T2, recombinant soluble P-selectin; assay: competitive ELISA on rsP-selectin; competitor biotinylated PB1.3
Procedure: (§1) A 96-well plate (MICROTEST III, FALCON #3912) was coated with 50 μl/well of rsP-selectin (diluted to 2 μg/ml in DPBS) overnight at 4° C. or 90 min at 37° C. The plate was inverted and residual fluid was tapped away.
(§2) The coated plate and an additional blank plate were blocked with 200 µl/well of DPBS+1% bovine serum albumin (BSA, SIGMA #A-7888), for 1 h at room temperature. The blank plate was inverted and the residual blocking fluid was tapped away. The rsP-selectin coated plate was allow to continue blocking during the antibody dilution period. Serially diluted sample antibodies (in DPBS+1% BSA) were added to the blank plate at 50 µl/well. The initial concentrations of the antibodies were 100 µg/ml. Biotinylated-PB1.3 (diluted to 0.3 µg/ml in DPBS+1% BSA) was added to the sample antibodies in the blank plate, 50 µl/well, and mixed by pipetting up and down. The rsP-selectin coated plate was washed three times with DPBS. The sample antibody/biotinylated -PB1.3 mixture was pipetted into the plate coated with rsP-selectin, 50 µl/well, and allowed to incubate for one h at room temperature. The plate was then washed three times with DPBS.
(§3) Streptavidin horse radish peroxidase conjugate (PIERCE #21124) diluted 1:2000 in DPBS+1% BSA was added to the plate, 50 µl/well and allowed to incubate for 1 h at room temperature. The plate was then washed three times with DPBS.

[3] = biological target: T2, recombinant soluble P-selectin; assay: competitive ELISA on rsP-selectin; reference unlabelled PB1.3
Procedure: as §1, §2, §3

P-selectin Δ5CRP = P-selectin Δ5CRP (human, UniProt P16109); assay: direct ELISA of COS cell supernatants
[4] = biological target: T2, recombinant soluble P-selectin; assay: competitive ELISA on rsP-selectin; unlabelled PB1.3 against biotinylated PB1.3
Procedure: as §1, §2, §3

peptide CQNRYTDLVAIQNKNE = biological target: T1, peptide CQNRYTDLVAIQNKNE; assay: indirect: soluble peptide as competitor in ELISA of PB1.3 on affinity purified P-selectin
Procedure: III. […] Dilutions of mu MAb PB1.3 in DPBS+1% BSA were mixed with either 0.35 mg/ml CQNRYT-[…] (SEQ ID No: 1) in PBS, or as a control, PBS alone. After 1 hr, 50 μl of each antibody dilution was added to the microtiter plate, and incubated for 1 hr. The plate was washed with DPBS, and a 1 to 1000 dilution of sheep anti-mouse IgG horseradish peroxidase conjugate in DPBS+ 1% BSA was added. After 1 hr, the plate was washed, the substrate TMB was added, and the color development was stopped and the plates read as above.

Binder	binding result [1]	binding relative to PB1.3 [3] [%]	other results
B1	binds	–	–
B2	–	50	IC50 [2]: 2 µg/mL
B3	–	50	–
B4	binds	–	–
B5	–	–	binding result (P-selectin Δ5CRP): no binding; IC50 [4]: 1 µg/mL; binding result (peptide CQNRYTDLVAIQNKNE): no binding (tested: 0.35 mg/ml)
